Assay in all cases: fluorescence polarisation; 25 °C; unlabeled Rb^P titrated against 1.5 nM TMR-E2F1^TD or 7.5 nM TMR-E7^LxCxE; 25 mM Tris pH 8.0, 200 mM NaCl, 1 mM DTT, 0.1% Tween-20; 2 min incubation; quadratic fit; apparent Kd for the variants, Kd for WT
Conditions in all cases: both partners purified
(In general: Polarisation of emitted light reports the rotation of a fluorescent probe.)

The target of test [1] is T1, Rb^P A490T (human, UniProt P06400 380-788, A490T).
T1 construct: also called variant 16
T1 sequence (looked up): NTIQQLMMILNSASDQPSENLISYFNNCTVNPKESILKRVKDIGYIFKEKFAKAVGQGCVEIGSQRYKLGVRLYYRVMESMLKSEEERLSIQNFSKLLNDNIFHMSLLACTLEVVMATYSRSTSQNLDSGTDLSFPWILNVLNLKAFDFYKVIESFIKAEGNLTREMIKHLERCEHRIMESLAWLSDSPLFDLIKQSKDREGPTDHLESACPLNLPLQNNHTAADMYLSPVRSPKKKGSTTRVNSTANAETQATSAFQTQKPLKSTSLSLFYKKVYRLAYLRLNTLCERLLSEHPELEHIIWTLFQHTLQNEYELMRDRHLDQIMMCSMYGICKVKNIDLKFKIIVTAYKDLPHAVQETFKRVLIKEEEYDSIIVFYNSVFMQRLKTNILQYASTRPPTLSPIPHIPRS

The target of test [2] is T2, Rb^P V654L (human, UniProt P06400 380-788, V654L).
T2 construct: also called variant 47
T2 sequence (looked up): T1 sequence (looked up) with T111A, V275L

Test [3] addresses T3, Rb^P R451S (human, UniProt P06400 380-788, R451S).
T3 construct: also called variant 7
T3 sequence (looked up): T1 sequence (looked up) with R72S, T111A

The target in test [4] is T4, Rb^P R656W (human, UniProt P06400 380-788, R656W).
T4 construct: also called variant 49
T4 sequence (looked up): T1 sequence (looked up) with T111A, R277W

Test [5] addresses T5, Rb^P Q444L (human, UniProt P06400 380-788, Q444L).
T5 construct: also called variant 3
T5 sequence (looked up): T1 sequence (looked up) with Q65L, T111A

Where a chain is given by its changes, count along the chain named. Numbers in names are those of the source. No end group written: not given here. TMR = tetramethyl rhodamine dye

B1: TMR-E2F1^TD, peptide of the E2F1 transactivation domain (peptide)
peptide: {TMR}-GEGIRDLFDCDFGDLTPLD
notes: also called E2F^TD; source: synthetic peptide, bought: GenScript
On to B1, for which the Kd in test [1] came to 59 nM; in test [2] it was 18 nM; in test [3], 26 nM; in test [4] it was 39 nM; in test [5], 14 nM.

B2: TMR-E7^LxCxE, LxCxE peptide of the E7 oncoprotein from HPV (peptide)
peptide: DLYCYEQLN
modifications: also: TMR label, position not given here
notes: source: synthetic peptide, bought: GenScript
In the case of B2, the Kd was determined as 13 nM in test [1]; 11 nM in test [2]; 9 nM in test [3]; 8 nM in test [4]; 4 nM in test [5].
